The supplement of paper PMC10065799, “High-throughput profiling of sequence recognition by tyrosine kinases and SH2 domains using bacterial peptide display” (eLife, 2023)

Assays:
EPHB2 = EPHB2 (UniProt P29323); experiment: phosphorylation enrichment, bacterial display (enrichment ratio); higher = better substrate or ligand; peptides without Tyr show the background
Jak2 = Jak2 (UniProt O60674); experiment: as above
Fer (mouse) = experiment: as above
FGFR1 = FGFR1 (UniProt P11362); experiment: as above
MERTK = MERTK (UniProt Q12866); experiment: as above
AncSZ = experiment: as above
Fyn = Fyn (UniProt P06241); experiment: as above
Fes = Fes (UniProt P07332); experiment: as above
EPHB1 = EPHB1 (UniProt P54762); experiment: as above
FGFR3 = FGFR3 (UniProt P22607); experiment: as above
Hck = Hck (UniProt P08631); experiment: as above
c-Src = experiment: as above
c-Abl (mouse) = experiment: as above
Grb2 SH2 = Grb2 SH2 (UniProt P62993); experiment: SH2 binding enrichment of the phosphorylated peptide, bacterial display (enrichment ratio); higher = better substrate or ligand; peptides without Tyr show the background
SHP2-C SH2 = experiment: as above
c-Src SH2 = experiment: as above
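Wherever SH2 binding enrichment of the phosphorylated peptide, bacterial display is given: peptide library displayed on the E. coli surface as eCPX fusions, selected cells deep-sequenced, score is each peptide's frequency after selection divided by its frequency in the input.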
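Wherever phosphorylation enrichment, bacterial display is given: 11-residue human phosphosite peptides and single-mutation variants displayed on the E. coli surface, counted by deep sequencing, each peptide's frequency after selection divided by its frequency in the unselected input library; frequency after pTyr selection over input frequency; kinase dosed for 20-30% of maximal phosphorylation in three min.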

Chain of Hck (P08631 whole entry, looked up): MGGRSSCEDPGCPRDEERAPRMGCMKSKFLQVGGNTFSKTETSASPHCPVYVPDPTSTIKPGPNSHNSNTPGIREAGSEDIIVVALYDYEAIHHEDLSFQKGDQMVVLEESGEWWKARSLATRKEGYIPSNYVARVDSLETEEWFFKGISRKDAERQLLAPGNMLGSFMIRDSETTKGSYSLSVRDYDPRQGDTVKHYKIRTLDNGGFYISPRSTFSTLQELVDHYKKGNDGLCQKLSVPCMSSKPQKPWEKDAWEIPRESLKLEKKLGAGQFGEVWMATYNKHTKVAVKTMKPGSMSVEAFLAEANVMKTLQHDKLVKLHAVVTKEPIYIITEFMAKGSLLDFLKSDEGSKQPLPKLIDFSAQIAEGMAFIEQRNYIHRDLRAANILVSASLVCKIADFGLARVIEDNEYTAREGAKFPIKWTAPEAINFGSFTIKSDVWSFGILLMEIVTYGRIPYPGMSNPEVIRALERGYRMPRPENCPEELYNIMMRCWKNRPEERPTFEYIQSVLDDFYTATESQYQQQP
Chain of EPHB2 (P29323 whole entry, looked up): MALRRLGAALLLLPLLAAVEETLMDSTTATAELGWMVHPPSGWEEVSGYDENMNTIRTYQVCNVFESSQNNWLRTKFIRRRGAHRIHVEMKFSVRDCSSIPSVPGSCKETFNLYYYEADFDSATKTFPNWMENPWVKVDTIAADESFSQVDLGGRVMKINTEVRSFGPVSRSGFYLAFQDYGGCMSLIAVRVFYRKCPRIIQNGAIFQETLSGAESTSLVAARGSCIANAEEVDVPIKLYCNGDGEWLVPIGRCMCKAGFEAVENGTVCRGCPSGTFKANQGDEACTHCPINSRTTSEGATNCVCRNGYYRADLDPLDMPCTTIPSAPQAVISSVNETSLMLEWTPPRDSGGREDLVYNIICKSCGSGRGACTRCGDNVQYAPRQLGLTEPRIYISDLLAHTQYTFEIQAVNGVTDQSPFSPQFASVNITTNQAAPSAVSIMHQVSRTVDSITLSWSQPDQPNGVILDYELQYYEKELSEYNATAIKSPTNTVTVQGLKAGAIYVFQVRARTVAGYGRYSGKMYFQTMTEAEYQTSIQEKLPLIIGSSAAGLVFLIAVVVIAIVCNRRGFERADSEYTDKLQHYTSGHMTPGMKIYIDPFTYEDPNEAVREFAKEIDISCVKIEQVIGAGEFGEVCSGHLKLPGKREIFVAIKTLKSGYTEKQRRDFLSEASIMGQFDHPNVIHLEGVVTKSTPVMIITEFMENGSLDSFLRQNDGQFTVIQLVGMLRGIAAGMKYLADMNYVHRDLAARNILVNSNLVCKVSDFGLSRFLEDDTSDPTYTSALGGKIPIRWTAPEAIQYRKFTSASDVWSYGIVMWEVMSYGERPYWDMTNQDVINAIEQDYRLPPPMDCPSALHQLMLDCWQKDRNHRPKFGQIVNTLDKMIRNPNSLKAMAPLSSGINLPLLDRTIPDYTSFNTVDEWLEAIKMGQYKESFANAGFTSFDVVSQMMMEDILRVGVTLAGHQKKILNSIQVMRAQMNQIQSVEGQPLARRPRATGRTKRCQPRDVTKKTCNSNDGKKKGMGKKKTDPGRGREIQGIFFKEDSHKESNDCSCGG
Chain of Fes (P07332 whole entry, looked up): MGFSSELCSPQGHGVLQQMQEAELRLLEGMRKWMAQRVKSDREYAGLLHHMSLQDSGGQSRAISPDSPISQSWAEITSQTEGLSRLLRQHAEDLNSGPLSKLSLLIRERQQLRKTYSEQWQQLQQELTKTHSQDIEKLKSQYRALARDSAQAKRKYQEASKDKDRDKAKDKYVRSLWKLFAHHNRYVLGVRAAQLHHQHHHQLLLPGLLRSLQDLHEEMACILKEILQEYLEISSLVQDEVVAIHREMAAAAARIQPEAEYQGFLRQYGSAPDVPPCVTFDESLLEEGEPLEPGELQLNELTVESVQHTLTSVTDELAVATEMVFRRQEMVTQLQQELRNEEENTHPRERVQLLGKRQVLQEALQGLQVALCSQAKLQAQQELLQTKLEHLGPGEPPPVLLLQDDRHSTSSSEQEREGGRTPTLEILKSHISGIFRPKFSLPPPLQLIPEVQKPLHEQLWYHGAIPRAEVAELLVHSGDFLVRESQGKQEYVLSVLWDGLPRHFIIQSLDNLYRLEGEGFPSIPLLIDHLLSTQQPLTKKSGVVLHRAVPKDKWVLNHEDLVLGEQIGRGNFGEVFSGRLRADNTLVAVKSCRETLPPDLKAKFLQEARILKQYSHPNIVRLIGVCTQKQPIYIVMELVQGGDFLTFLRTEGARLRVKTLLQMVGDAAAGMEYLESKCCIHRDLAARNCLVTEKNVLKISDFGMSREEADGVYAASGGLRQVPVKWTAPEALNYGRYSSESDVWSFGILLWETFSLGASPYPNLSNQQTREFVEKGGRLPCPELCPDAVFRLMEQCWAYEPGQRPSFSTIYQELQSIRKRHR
Chain of Fyn (P06241 whole entry, looked up): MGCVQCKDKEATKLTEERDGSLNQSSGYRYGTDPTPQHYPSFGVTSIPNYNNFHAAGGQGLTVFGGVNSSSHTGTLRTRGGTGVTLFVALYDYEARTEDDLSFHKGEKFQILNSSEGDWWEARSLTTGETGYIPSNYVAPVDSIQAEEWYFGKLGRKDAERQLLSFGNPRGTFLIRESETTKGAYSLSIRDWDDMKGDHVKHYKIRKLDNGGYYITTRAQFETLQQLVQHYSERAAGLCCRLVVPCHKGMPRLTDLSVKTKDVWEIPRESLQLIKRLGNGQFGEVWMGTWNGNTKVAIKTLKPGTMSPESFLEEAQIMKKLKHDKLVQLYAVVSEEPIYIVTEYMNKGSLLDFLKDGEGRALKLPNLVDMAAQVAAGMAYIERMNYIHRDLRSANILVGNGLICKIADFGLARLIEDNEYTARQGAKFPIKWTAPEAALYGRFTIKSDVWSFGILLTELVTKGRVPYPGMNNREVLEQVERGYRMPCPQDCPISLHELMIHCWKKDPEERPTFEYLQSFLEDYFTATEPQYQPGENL
Chain of MERTK (Q12866 whole entry, looked up): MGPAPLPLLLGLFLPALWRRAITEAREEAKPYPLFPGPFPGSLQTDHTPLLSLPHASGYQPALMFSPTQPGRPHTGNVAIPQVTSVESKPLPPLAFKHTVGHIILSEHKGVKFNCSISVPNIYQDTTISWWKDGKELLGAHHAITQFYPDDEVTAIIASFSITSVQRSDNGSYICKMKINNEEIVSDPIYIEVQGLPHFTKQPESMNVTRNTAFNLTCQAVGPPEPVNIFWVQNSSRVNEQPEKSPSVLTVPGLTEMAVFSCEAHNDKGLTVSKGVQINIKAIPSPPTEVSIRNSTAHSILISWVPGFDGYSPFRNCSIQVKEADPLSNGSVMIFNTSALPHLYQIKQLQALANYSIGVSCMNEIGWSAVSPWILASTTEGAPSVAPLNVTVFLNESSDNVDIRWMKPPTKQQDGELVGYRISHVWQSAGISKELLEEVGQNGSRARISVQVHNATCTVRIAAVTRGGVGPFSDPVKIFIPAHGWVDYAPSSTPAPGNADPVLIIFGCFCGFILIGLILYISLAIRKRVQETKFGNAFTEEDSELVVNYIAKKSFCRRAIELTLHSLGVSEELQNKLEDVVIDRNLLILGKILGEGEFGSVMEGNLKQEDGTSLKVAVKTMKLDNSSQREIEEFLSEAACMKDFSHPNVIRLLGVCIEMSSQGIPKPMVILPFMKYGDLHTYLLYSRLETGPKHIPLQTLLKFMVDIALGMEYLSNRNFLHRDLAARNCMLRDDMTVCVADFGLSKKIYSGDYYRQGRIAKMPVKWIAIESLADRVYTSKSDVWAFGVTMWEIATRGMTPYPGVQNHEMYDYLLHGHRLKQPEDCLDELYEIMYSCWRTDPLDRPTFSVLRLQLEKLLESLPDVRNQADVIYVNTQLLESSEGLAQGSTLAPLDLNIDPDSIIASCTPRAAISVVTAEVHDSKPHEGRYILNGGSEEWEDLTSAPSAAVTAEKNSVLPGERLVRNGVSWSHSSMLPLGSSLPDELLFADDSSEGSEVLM
Chain of Jak2 (O60674 whole entry, looked up): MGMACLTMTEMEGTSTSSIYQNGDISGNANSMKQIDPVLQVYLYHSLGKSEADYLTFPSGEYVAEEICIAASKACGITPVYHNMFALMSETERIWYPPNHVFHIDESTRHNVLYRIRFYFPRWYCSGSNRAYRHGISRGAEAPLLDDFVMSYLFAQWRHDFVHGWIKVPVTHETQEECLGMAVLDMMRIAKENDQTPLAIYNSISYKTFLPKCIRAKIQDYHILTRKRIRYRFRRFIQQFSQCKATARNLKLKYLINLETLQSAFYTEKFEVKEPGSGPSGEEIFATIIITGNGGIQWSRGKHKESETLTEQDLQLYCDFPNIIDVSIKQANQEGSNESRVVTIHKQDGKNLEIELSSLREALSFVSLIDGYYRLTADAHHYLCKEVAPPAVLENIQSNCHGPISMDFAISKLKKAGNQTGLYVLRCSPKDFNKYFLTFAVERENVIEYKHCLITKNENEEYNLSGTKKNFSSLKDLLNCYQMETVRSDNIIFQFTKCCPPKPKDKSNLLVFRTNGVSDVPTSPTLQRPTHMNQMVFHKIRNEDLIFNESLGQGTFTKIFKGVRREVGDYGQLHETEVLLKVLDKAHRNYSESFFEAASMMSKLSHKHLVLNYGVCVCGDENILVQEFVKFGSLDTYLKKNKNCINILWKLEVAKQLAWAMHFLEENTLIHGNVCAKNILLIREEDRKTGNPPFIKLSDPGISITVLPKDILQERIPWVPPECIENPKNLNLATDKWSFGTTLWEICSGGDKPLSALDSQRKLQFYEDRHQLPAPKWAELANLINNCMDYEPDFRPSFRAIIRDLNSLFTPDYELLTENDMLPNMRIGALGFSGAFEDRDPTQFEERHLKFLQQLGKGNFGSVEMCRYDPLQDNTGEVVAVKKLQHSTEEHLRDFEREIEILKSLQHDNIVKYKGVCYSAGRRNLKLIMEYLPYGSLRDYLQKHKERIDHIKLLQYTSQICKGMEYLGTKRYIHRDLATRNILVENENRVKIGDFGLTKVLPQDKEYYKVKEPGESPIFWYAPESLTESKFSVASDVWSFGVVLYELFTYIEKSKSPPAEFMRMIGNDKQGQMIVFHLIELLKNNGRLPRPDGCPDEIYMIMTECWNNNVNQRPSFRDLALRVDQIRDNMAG

SH2 binding enrichment (Grb2 SH2)	SH2 binding enrichment (SHP2-C SH2)	SH2 binding enrichment (c-Src SH2)	Sequence	phosphorylation enrichment (EPHB2)	phosphorylation enrichment (Jak2)	phosphorylation enrichment (Fer (mouse))	phosphorylation enrichment (FGFR1)	phosphorylation enrichment (MERTK)	phosphorylation enrichment (AncSZ)	phosphorylation enrichment (Fyn)	phosphorylation enrichment (Fes)	phosphorylation enrichment (EPHB1)	phosphorylation enrichment (FGFR3)	phosphorylation enrichment (Hck)	phosphorylation enrichment (c-Src)	phosphorylation enrichment (c-Abl (mouse))
0.722	0.54	0.42	DLAHKYHGGGG [HBB_Y146_A141D]	0.392	0.545	0.32	0.43	0.452	0.441	0.373	0.473	0.333	0.388	0.348	0.388	0.394
1.17	1.13	0.717	TLGPFYPSRLF [CRYAA_Y18]	0.493	0.668	0.464	0.581	0.43	0.795	0.459	0.784	0.47	0.586	0.428	0.44	0.63
0.876	0.574	0.709	QWLEQYTQAIE [LSP1_Y234]	0.623	0.924	0.473	0.489	0.37	1.4	0.596	1.15	0.579	0.589	0.699	0.406	10.2
0.93	0.676	0.423	DRLASYLEKVR [KRT13_Y118]	0.399	0.616	0.424	0.393	0.424	0.736	0.366	0.677	0.372	0.384	0.375	0.412	0.451
1.03	0.783	0.566	LERFIYNRQEF [HLA-DPB1_Y59_E62Q_YF]	0.551	0.629	0.427	0.491	0.357	0.766	0.551	0.87	0.436	0.532	0.77	0.859	0.464
0.955	0.565	0.367	RESFKYFPSSL [CXXC1_Y218_YF]	0.421	0.612	0.295	0.543	0.421	0.748	0.435	0.567	0.424	0.547	0.4	0.852	0.454
0.875	2.48	8.18	GACGGYCSVLG [RAB18_Y202]	0.352	0.522	0.441	0.435	0.525	0.533	0.473	0.77	0.358	0.401	0.392	0.509	0.461
0.753	0.704	0.766	VKKNRYKDILP [PTPN12_Y64]	0.471	0.839	0.511	0.519	0.592	0.709	0.466	0.988	0.47	0.769	0.507	0.653	0.874
1.08	0.884	1.41	VLRRVYVDFEG [KMT2B_Y1707]	0.518	0.774	0.403	0.478	0.435	0.842	0.472	0.909	0.424	0.613	0.502	0.602	0.629
0.607	0.622	0.546	LENSTYQFIRV [CRB1_Y760_YF]	1.75	0.946	15.8	5.63	4.96	1.36	2.87	1.52	5.79	3.21	7.9	3.85	1.18
0.601	0.602	0.367	KIDAKYKKKIE [WDR19_Y1230]	0.373	0.594	0.401	0.368	0.418	0.698	0.308	0.891	0.27	0.368	0.408	0.346	0.631
1.04	1.07	0.723	GCLSKYSGVFS [TUBGCP6_Y1624_V1621L]	0.543	1.19	0.514	0.425	0.46	0.778	0.51	1.01	0.52	0.565	0.542	0.509	0.673
0.851	85.4	3.11	PQAVTYATVKH [LILRB4_Y360_K362T]	0.615	0.882	0.624	0.423	0.543	0.655	1.72	0.776	0.735	0.607	2.92	2.83	0.856
0.911	0.409	0.259	ARKRKYFKKHE [NFIX_Y40]	0.535	0.477	0.281	0.554	0.472	0.602	0.561	0.653	0.511	0.591	0.605	0.56	0.64
1.01	0.694	0.61	DEEPPDRGPFC [SASH1_Y551_Y551D]	0.596	0.952	0.665	0.574	0.465	1.15	0.532	1.14	0.549	0.679	0.496	0.513	0.798
0.696	0.558	0.543	LQRVQCDLQKA [DSP_Y1512_Y1512C]	0.827	1.43	0.809	1.06	0.762	1.14	0.811	1.16	1.12	1.31	0.812	0.709	0.987
0.793	0.543	0.433	RSRSPYSSRHS [CDK13_Y415]	0.614	0.472	0.439	0.701	0.625	0.596	0.557	0.634	0.422	0.489	0.548	0.446	0.637

SH2 binding enrichment (Grb2 SH2)	SH2 binding enrichment (SHP2-C SH2)	SH2 binding enrichment (c-Src SH2)	Sequence	phosphorylation enrichment (EPHB2)	phosphorylation enrichment (Jak2)	phosphorylation enrichment (Fer (mouse))	phosphorylation enrichment (FGFR1)	phosphorylation enrichment (MERTK)	phosphorylation enrichment (AncSZ)	phosphorylation enrichment (Fyn)	phosphorylation enrichment (Fes)	phosphorylation enrichment (EPHB1)	phosphorylation enrichment (FGFR3)	phosphorylation enrichment (Hck)	phosphorylation enrichment (c-Src)	phosphorylation enrichment (c-Abl (mouse))
1.41	1.28	1.09	IIAVHYVLEES [RYR2_Y4559]	0.628	0.963	0.501	0.557	0.484	1	0.457	2.04	0.565	0.626	0.516	0.488	0.676
0.799	0.79	0.441	IPQEEYTATGL	0.512	0.955	0.562	0.506	0.378	1.16	0.437	1.39	0.622	0.653	0.461	0.56	0.924
0.69	0.728	1.83	GGDGSYVSVPS [TNNI3K_Y425]	0.431	0.495	0.415	0.419	0.338	0.564	0.443	0.565	0.382	0.592	0.412	0.347	0.487
0.922	0.911	0.67	PIDLYYLMDLS [ITGB2_Y131]	12.5	8.57	9.5	17.4	13.3	6.05	8.8	4.2	13.5	18.6	7.58	6.67	1.09
0.808	0.862	0.9	HTEGEYSSLEH [IDH3B_Y171_Q166H]	1.28	0.828	0.791	0.793	0.764	1.85	1.46	1.09	1.44	0.785	1.24	1.02	0.97
0.878	0.785	0.582	CGTPTYLAPEV [CHEK2_Y390]	1.39	1.9	0.564	1.12	0.816	2.38	0.627	1.34	1.18	1.04	0.776	0.639	7.74
1.02	1.5	0.591	FQKNIYSEELR [LMNA_Y211]	0.728	1.04	0.516	0.801	5.8	1.01	0.965	1.24	0.84	1.2	1.07	1.81	1.04
0.841	0.604	0.424	IGMFSYVMLAS [GGCX_Y301]	0.611	1.57	0.562	0.598	0.477	1.21	0.444	1.56	0.649	0.851	0.548	0.512	0.997
0.744	0.659	0.451	GNLQEYLTRHV [TGFBR2_Y336]	0.564	0.581	0.462	0.516	0.368	0.794	0.455	0.828	0.474	0.584	0.465	0.363	0.667
0.804	0.633	1.19	SYDLDYDSVQP [MYC_Y16_N11S]	1.73	1.04	0.995	0.589	0.443	2.5	0.723	1.21	1.03	0.862	0.762	0.796	0.741
0.846	0.635	0.6	VPVNGYQPVTA [ROR2_Y824_P828T]	0.414	0.494	0.336	0.375	0.392	0.492	0.541	0.535	0.392	0.535	0.348	0.309	0.516
1.55	2.56	1.73	QKKPCYEIRWK [PDGFRB_Y562_R561C]	1.48	0.653	1.02	0.914	0.67	1.43	0.983	1.03	0.958	2.08	1.02	0.361	0.652
0.789	0.728	0.498	GGRIDYIAGLD [APRT_Y60]	0.417	0.708	0.521	0.447	0.46	0.898	0.409	0.829	0.85	0.545	0.52	0.422	0.582
0.679	0.665	0.456	MRAIIYNSSTA [PLEKHA7_Y243_L241I]	0.609	0.765	0.528	0.554	0.47	0.812	0.509	0.838	0.473	0.623	0.501	0.447	1.04
1.78	1.98	1.32	VTHKEYFIFLE [CAMKV_Y95_R92H]	1.36	1.29	0.596	2.2	0.516	1.08	0.623	1.36	1.13	1.87	0.54	1.29	0.755
0.992	0.707	0.49	WQQQSYLDSEI [CTNNB1_Y30_G34E]	0.557	0.96	0.514	0.397	0.377	0.792	0.437	0.854	0.512	0.669	0.444	0.421	0.581
